From publication PMC8381054

Legend:
[1] = biological target: human CR2(SCR1-4)-Fc (human)
[2] = biological target: recombinant wild-type human C3d with its native thioester cysteine intact (C3d^17C) (human) (UniProt P01024); experiment: non-reducing SDS-PAGE; recombinant C3d^17C 'under non-reducing conditions', 'in a similar manner' to C3b (Supplementary Figure S2, not shown)
[3] = biological target: recombinant wild-type human C3d with its native thioester cysteine intact (C3d^17C) (human) (UniProt P01024); experiment: SEC; size exclusion chromatography of C3d^17C in solution (Supplementary Figure S2); monomer and disulphide-linked dimer

Work on “human C3d with a Cys to Ala mutation at position 17(C3d)/1010 (pre-pro C3) (C3d^17A) (from UniProt P01024 996-1303) (domain or fragment)” yielded a geometric mean EC50 of upregulation of CD69 on CD19+ B cells in human PBMC, with anti-IgM F(ab')2 [1] of 139 nM and a geometric mean EC50 of upregulation of CD86 on CD19+ B cells in human PBMC, with anti-IgM F(ab')2 [1] of 59 nM.
“chemically-linked dimeric C3d^17C (from UniProt P01024 996-1303)” showed a geometric mean EC50 of upregulation of CD69 on CD19+ B cells in human PBMC, with anti-IgM F(ab')2 [1] of 47 nM and a geometric mean EC50 of upregulation of CD86 on CD19+ B cells in human PBMC, with anti-IgM F(ab')2 [1] of 18 nM.
“recombinant wild-type human C3d with its native thioester cysteine intact (C3d^17C) (from UniProt P01024 996-1303) (domain or fragment)” showed a stoichiometry N [2] of 2 and a stoichiometry N [3] of 2.
